The target in assay [1] is T1, oligomerized biotinylated synthetic human Aβ1-42 peptide (human, UniProt P05067 672-713, biotinylated (position not given)).
Assay [2] deals with T1, oligomerized biotinylated synthetic …. This is another data set of the same source.

Read-outs that look alike come from different tables or passages of the source.

B1: human LilrB2 (leukocyte immunoglobulin-like receptor B2) expressed on HEK293 cells (receptor, UniProt Q8N423 22-597, looked up)
chain: QTGTIPKPTLWAEPDSVITQGSPVTLSCQGSLEAQEYRLYREKKSASWITRIRPELVKNGQFHIPSITWEHTGRYGCQYYSRARWSELSDPLVLVMTGAYPKPTLSAQPSPVVTSGGRVTLQCESQVAFGGFILCKEGEDEHPQCLNSQPHARGSSRAIFSVGPVSPNRRWSHRCYGYDLNSPYVWSSPSDLLELLVPGVSKKPSLSVQPGPVMAPGESLTLQCVSDVGYDRFVLYKEGERDLRQLPGRQPQAGLSQANFTLGPVSRSYGGQYRCYGAHNLSSECSAPSDPLDILITGQIRGTPFISVQPGPTVASGENVTLLCQSWRQFHTFLLTKAGAADAPLRLRSIHEYPKYQAEFPMSPVTSAHAGTYRCYGSLNSDPYLLSHPSEPLELVVSGPSMGSSPPPTGPISTPGPEDQPLTPTGSDPQSGLGRHLGVVIGILVAVVLLLLLLLLLFLILRHRRQGKHWTSTQRKADFQHPAGAVGPEPTDRGLQWRSSPAADAQEENLYAAVKDTQPEDGVEMDTRAAASEAPQDVTYAQLHSLTLRRKATEPPPSQEREPPAEPSIYATLAIH
A word on the Kd: it is the concentration at which binding is half-saturated. Higher therefore signals lower affinity. In the case of B1, the figures for the Kd in assay [1] and in assay [2] were 250 nM and 206 ± 65 nM, respectively.

(Values after paper PMC3853120 (Science (New York, N.Y.), 2013).)
